{
  "source": "IntAct's records for PubMed 31515488",
  "parents": {"B1": {"name": "Tetratricopeptide repeat protein 14 (Homo sapiens), Q96N46 (parent)", "chain": "MDRDLLRQSLNCHGSSLLSLLRSEQQDNPHFRSLLGSAAEPARGPPPQHPLQGRKEKRVDNIEIQKFISKKADLLFALSWKSDAPATSEINEDSEDHYAIMPPLEQFMEIPSMDRRELFFRDIERGDIVIGRISSIREFGFFMVLICLGSGIMRDIAHLEITALCPLRDVPSHSNHGDPLSYYQTGDIIRAGIKDIDRYHEKLAVSLYSSSLPPHLSGIKLGVISSEELPLYYRRSVELNSNSLESYENVMQSSLGFVNPGVVEFLLEKLGIDESNPPSLMRGLQSKNFSEDDFASALRKKQSASWALKCVKIGVDYFKVGRHVDAMNEYNKALEIDKQNVEALVARGALYATKGSLNKAIEDFELALENCPTHRNARKYLCQTLVERGGQLEEEEKFLNAESYYKKALALDETFKDAEDALQKLHKYMQKSLELREKQAEKEEKQKTKKIETSAEKLRKLLKEEKRLKKKRRKSTSSSSVSSADESVSSSSSSSSSGHKRHKKHKRNRSESSRSSRRHSSRASSNQIDQNRKDECYPVPANTSASFLNHKQEVEKLLGKQDRLQYEKTQIKEKDRCPLSSSSLEIPDDFGGRSEDPRDFYNSYKTQAGSSKTEKPYKSERHFSSRRNSSDSFCRNSEDKIYGYRRFEKDIEGRKEHYRRWEPGSVRHSTSPASSEYSWKSVEKYKKYAHSGSRDFSRHEQRYRLNTNQGEYEREDNYGEDIKTEVPEEDALSSKEHSESSVKKNLPQNLLNIFNQIAEFEKEKGNKSKN"}, "B2": {"name": "Ornithine decarboxylase antizyme 3 (Homo sapiens), Q9UMX2 (parent)", "chain": "MPCKRCRPSVYSLSYIKRGKTRNYLYPIWSPYAYYLYCYKYRITLREKMLPRCYKSITYKEEEDLTLQPRSCLQCSESLVGLQEGKSTEQGNHDQLKELYSAGNLTVLATDPLLHQDPVQLDFHFRLTSQTSAHWHGLLCDRRLFLDIPYQALDQGNRESLTATLEYVEEKTNVDSVFVNFQNDRNDRGALLRAFSYMGFEVVRPDHPALPPLDNVIFMVYPLERDVGHLPSEPP", "partner": "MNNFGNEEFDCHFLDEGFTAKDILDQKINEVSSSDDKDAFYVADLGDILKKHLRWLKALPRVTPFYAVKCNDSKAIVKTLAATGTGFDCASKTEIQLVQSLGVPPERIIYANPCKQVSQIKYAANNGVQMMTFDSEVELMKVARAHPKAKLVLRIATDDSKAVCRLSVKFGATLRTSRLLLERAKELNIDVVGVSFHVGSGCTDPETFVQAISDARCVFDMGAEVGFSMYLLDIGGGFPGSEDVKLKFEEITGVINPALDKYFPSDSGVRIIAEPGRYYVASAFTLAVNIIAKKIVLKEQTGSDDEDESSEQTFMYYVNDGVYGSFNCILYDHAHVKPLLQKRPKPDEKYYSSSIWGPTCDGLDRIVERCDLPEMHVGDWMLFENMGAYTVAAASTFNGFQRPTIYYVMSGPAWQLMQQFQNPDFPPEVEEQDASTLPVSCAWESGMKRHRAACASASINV"}, "B3": {"name": "Mitochondrial fission 1 protein (Homo sapiens), Q9Y3D6 (parent)", "chain": "MEAVLNELVSVEDLLKFEKKFQSEKAAGSVSKSTQFEYAWCLVRSKYNDDIRKGIVLLEELLPKGSKEEQRDYVFYLAVGNYRLKEYEKALKYVRGLLQTEPQNNQAKELERLIDKAMKKDGLVGMAIVGGMALGVAGLAGLIGLAVSKSKS", "partner": "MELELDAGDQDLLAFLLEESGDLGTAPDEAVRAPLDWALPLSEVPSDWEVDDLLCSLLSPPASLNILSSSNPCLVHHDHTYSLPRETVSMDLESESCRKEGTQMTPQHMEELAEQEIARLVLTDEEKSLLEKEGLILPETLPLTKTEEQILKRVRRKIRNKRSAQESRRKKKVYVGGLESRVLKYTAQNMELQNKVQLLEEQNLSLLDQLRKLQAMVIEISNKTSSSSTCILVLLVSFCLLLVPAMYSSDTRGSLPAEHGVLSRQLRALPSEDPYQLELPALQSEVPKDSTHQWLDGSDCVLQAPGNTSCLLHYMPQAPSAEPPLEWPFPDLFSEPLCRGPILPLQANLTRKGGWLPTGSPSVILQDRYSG"}, "B4": {"name": "TNF receptor-associated factor 2 (Homo sapiens), Q12933 (parent)", "chain": "MAAASVTPPGSLELLQPGFSKTLLGTKLEAKYLCSACRNVLRRPFQAQCGHRYCSFCLASILSSGPQNCAACVHEGIYEEGISILESSSAFPDNAARREVESLPAVCPSDGCTWKGTLKEYESCHEGRCPLMLTECPACKGLVRLGEKERHLEHECPERSLSCRHCRAPCCGADVKAHHEVCPKFPLTCDGCGKKKIPREKFQDHVKTCGKCRVPCRFHAIGCLETVEGEKQQEHEVQWLREHLAMLLSSVLEAKPLLGDQSHAGSELLQRCESLEKKTATFENIVCVLNREVERVAMTAEACSRQHRLDQDKIEALSSKVQQLERSIGLKDLAMADLEQKVLEMEASTYDGVFIWKISDFARKRQEAVAGRIPAIFSPAFYTSRYGYKMCLRIYLNGDGTGRGTHLSLFFVVMKGPNDALLRWPFNQKVTLMLLDQNNREHVIDAFRPDVTSSSFQRPVNDMNIASGCPLFCPVSKMEAKNSYVRDDAIFIKAIVDLTGL"}, "B5": {"name": "Cyclin-dependent kinase 4 inhibitor C (Homo sapiens), P42773 (parent)", "chain": "MAEPWGNELASAAARGDLEQLTSLLQNNVNVNAQNGFGRTALQVMKLGNPEIARRLLLRGANPDLKDRTGFAVIHDAARAGFLDTLQTLLEFQADVNIEDNEGNLPLHLAAKEGHLRVVEFLVKHTASNVGHRNHKGDTACDLARLYGRNEVVSLMQANGAGGATNLQ"}},
  "data": [
    {"variants_of": "B1", "settings": "with cep70_human CEP70, Q8NHQ1", "values": [
      {"variant": "S697G", "effect of a mutation on the interaction": "with no effect"},
      {"variant": "E486Q", "effect of a mutation on the interaction": "with no effect"}
    ]},
    {"variants_of": "B2", "settings": "with dcor_human ODC1, P11926", "values": [
      {"variant": "V174A", "effect of a mutation on the interaction": "disrupting interaction strength"},
      {"variant": "R193Q", "effect of a mutation on the interaction": "disrupting interaction strength"}
    ]},
    {"variants_of": "B3", "settings": "with creb3_human CREB3, O43889", "values": [
      {"variant": "V124M", "effect of a mutation on the interaction": "with no effect"}
    ]},
    {"variants_of": "B4", "settings": "with traf1_human TRAF1, Q13077", "values": [
      {"variant": "T134A", "effect of a mutation on the interaction": "with no effect"},
      {"variant": "D488N", "effect of a mutation on the interaction": "with no effect"},
      {"variant": "E276Q", "effect of a mutation on the interaction": "with no effect"},
      {"variant": "D462N", "effect of a mutation on the interaction": "with no effect"},
      {"variant": "V206I", "effect of a mutation on the interaction": "with no effect"},
      {"variant": "K278T", "effect of a mutation on the interaction": "with no effect"},
      {"variant": "A264T", "effect of a mutation on the interaction": "with no effect"},
      {"variant": "V475I", "effect of a mutation on the interaction": "with no effect"}
    ]},
    {"variants_of": "B5", "settings": "with cdk6_human CDK6, Q00534", "values": [
      {"variant": "R133Q", "effect of a mutation on the interaction": "with no effect"},
      {"variant": "V31L", "effect of a mutation on the interaction": "with no effect"},
      {"variant": "T69A", "effect of a mutation on the interaction": "with no effect"}
    ]},
    {"variants_of": "B5", "settings": "with htf4_human TCF12, Q99081", "values": [
      {"variant": "V31L", "effect of a mutation on the interaction": "disrupting interaction strength"}
    ]},
    {"variants_of": "B5", "settings": "with cdk4_human CDK4, P11802", "values": [
      {"variant": "V31L", "effect of a mutation on the interaction": "with no effect"},
      {"variant": "T69A", "effect of a mutation on the interaction": "with no effect"}
    ]},
    {"variants_of": "B5", "settings": "with itf2_human TCF4, P15884", "values": [
      {"variant": "V31L", "effect of a mutation on the interaction": "disrupting interaction strength"},
      {"variant": "T69A", "effect of a mutation on the interaction": "with no effect"}
    ]},
    {"variants_of": "B5", "settings": "with nagk_human NAGK", "values": [
      {"variant": "V31L", "effect of a mutation on the interaction": "disrupting interaction strength"}
    ]},
    {"variants_of": "B5", "settings": "with sahh2_human AHCYL1, O43865", "values": [
      {"variant": "V31L", "effect of a mutation on the interaction": "disrupting interaction strength"}
    ]}
  ]
}
